The target in the data set is HuR (Human antigen R, ELAVL1) (UniProt Q15717 Q15717:1-326). In words: SPR; localized SPR (LSPR) on gold nanoparticle arrays; sizable red shift on HuR addition; inhibitor CMLD-1 disrupted binding (10 nm leftward shift). To be noted: tags: Novus Biologicals H00001994-P01; tethered by base pairing to thiolated ssDNA on gold nanoparticles. As to the method:
Next a target RNA strand containing a DNA hybridizing region, which binds via base pair matching with the ssDNA on the nanoparticle, and a hairpin loop containing a HuR target binding site. The specific target RNA strand used (SEQ ID NO 7) contains a specific HuR binding motif, has the RNA sequence 5′-GCG-AAU-UGG-GCC-CGA-CGU-CGC-AUG-GCU-UUU-AUU-UAU-UUU-GCA-UGG-CCG-CGG-GAU-3′, and was from Integrated DNA Technologies (IDT). Last, the HuR protein is added and binds to its target site withing the RNA hairpin loop. The specific HuR protein used was a recombinant HuR protein from Novus Biologicals (product #:H00001994-P01). For each step of the assembly, sizable LSPR shifts were observed, confirming our ability to quantitatively measure the expected binding at each step (FIG. 11A-C).
(In general: In SPR one partner is held on a chip, and binding of the other changes the refractive index at the surface.)

Chain of HuR (Human antigen R, ELAVL1) (Q15717 whole entry, one chain of several): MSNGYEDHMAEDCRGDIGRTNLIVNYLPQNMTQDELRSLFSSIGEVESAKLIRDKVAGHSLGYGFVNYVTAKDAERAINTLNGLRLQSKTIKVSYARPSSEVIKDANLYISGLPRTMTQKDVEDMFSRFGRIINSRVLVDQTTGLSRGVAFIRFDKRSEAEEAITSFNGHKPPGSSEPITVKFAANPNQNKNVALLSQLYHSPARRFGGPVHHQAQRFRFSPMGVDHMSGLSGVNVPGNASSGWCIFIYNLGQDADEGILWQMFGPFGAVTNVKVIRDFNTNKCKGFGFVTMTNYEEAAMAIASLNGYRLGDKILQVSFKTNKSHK

B1: HuR target RNA with DNA-hybridizing region and hairpin loop (ssRNA)
RNA: GCGAAUUGGGCCCGACGUCGCAUGGCUUUUAUUUAUUUUGCAUGGCCGCGGGAU
As for B1, the binding result was “binds”.

Values taken from US20190117772, “METHODS FOR THE TREATMENT OF CARDIAC HYPERTROPHY” (UNIVERSITY OF CINCINNATI, published 2019).
